Test results as given in paper PMC9152305.

Key:
[1] = biological target: SARS-CoV-2 Omicron BA.2 spike extracellular domain trimer (SARS-CoV-2 Omicron BA.2) (UniProt P0DTC2); assay: BLI
[2] = biological target: SARS-CoV-2 Omicron BA.2 spike extracellular domain trimer (SARS-CoV-2 Omicron BA.2) (UniProt P0DTC2); assay: cryo-EM structure

Substance | Kd [1] | stoichiometry N (Fab per spike trimer) [2]
JMB2002 Fab | 2.6 nM | 3
JMB2002 IgG (antibody) | 0.3 nM | –
